Source: patent US20060193821

Experiments:
Assay in all cases: filter
[1] = molecular target: IL-23 (human, p19/p40 heterodimer) (Homo sapiens) (UniProt Q9NPF7+P29460)
[2] = molecular target: T1, IL-12 (mouse, p35/p40 heterodimer) (Mus musculus) (UniProt P43431+P43432); settings: 2'-F all C and U (rRfY); 1X PBS, 0.1 mg/mL BSA, 30 min RT
T1 sequence 1: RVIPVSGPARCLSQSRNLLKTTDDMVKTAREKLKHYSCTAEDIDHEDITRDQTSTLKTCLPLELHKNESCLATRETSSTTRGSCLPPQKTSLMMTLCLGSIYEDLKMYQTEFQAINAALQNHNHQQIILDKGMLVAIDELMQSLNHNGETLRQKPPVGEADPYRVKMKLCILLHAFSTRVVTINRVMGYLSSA
T1 sequence 2: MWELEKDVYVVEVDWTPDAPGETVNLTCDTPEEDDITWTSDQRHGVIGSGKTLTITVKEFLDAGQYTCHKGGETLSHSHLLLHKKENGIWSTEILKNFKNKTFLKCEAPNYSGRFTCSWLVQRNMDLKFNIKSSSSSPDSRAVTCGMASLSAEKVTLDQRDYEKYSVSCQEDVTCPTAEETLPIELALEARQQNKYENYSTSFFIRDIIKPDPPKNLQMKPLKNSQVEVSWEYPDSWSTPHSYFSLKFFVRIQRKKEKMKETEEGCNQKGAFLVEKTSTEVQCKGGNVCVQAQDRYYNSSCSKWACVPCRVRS

[3] = molecular target: T2, IL-23 (mouse, p19/p40 heterodimer) (Mus musculus) (UniProt Q9EQ14+P43432); settings: 2'-F all C and U (rRfY); 1X PBS, 0.1 mg/mL BSA, 30 min RT
T2 sequence 1: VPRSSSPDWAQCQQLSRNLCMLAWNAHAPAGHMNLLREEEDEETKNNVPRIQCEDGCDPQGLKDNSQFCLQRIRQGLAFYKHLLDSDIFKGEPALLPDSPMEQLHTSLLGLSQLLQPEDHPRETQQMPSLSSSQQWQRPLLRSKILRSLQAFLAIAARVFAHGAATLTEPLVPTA
T2 sequence 2: T1 sequence 2

[4] = molecular target: IL-12 (human, p35/p40 heterodimer) (Homo sapiens) (UniProt P29459+P29460)
IL-12 (human, p35/p40 heterodimer) (Homo sapiens), sequence (P29459 23-219, chain 1 of 2): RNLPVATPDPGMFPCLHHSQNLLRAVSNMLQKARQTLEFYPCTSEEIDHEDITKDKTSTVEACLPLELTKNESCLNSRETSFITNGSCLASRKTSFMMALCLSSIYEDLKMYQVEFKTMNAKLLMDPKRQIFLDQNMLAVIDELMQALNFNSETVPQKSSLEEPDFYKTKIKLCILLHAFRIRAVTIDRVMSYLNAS
IL-12 (human, p35/p40 heterodimer) (Homo sapiens), sequence (P29460 23-328, chain 2 of 2): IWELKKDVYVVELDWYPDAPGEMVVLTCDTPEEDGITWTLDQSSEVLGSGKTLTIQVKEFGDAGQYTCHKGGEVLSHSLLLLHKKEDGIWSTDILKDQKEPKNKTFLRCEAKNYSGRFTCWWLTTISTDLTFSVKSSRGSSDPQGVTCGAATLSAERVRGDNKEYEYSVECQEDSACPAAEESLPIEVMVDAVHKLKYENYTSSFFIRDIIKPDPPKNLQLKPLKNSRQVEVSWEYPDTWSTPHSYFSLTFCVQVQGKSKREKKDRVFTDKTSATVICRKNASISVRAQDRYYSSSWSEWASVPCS

IL-23 (human, p19/p40 heterodimer) (Homo sapiens), sequence (Q9NPF7 20-189, chain 1 of 2): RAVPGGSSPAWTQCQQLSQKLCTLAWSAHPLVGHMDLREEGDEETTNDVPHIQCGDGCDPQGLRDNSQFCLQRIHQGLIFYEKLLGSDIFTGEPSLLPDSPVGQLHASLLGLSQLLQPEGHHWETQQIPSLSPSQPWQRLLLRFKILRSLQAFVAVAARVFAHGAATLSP
IL-23 (human, p19/p40 heterodimer) (Homo sapiens), sequence (P29460 23-328, chain 2 of 2): as the sequence (P29460 23-328, chain 2 of 2) above

## CGCAGGCAAGUAAUUGGGGAGUGCGGGCGGGGUGCG [ARC1467]
[1]; 2'-OMe C,U and some stem G, PEG spacers between stem 1 strands and core, 3'-idT, DPBS Ca Mg
  Kd: 1.7 nM

## GGAGCGCACUCAGCCACUGGGGAACAUCUCAUGUCUCUGACCGCUCUUGCAGUAGAAUUUNGACCUCUCUGCUAGC [AMX369.G3]
[2]
  Kd: 261 nM
[3]
  Kd: 106 nM

## ACAGGCAAGUAAUUGGGGAGUGCGGGCGGGGUGU [ARC1597]
[1]; deoxy A,G, 2'-OMe C,U, dI at G17, 3'-idT [17], DPBS Ca Mg
  Kd: 11.2 nM

## ACAGGCAAGUAAUUGGGGAGUGCGGGCGGGGUGU [ARC1615]
[1]; deoxy A,G, 2'-OMe C,U, dI at G28,G29, 3'-idT [dI at 28,29 (G parent), 2'-OMe C/U at 2,6,10,13,14,21,23,27,32,34, other A,G deoxy, 3'-inverted dT at 35], DPBS Ca Mg
  Kd: 5.8 nM

## ACAGGCAAGUAAUUGGGGAGUGCGGGCGGGGUGU [ARC1594]
[1]; deoxy A,G, 2'-OMe C,U, dI at G9, 3'-idT [dI at 9 (parent G), 2'-OMe C,U at 2,6,10,13,14,21,23,27,32,34, deoxy A,G elsewhere, 3'-inverted dT at 35], DPBS Ca Mg
  Kd: 4.2 nM

## ACAGGCAAGUAAUUGGGGAGUGCGGGCGGGGUGU [ARC1466]
[1]; deoxy A,G, 2'-OMe C,U, PEG spacers between stem 1 strands and core, 3'-idT, DPBS Ca Mg
  Kd: 1.9 nM

## GGGAAAAGCGAAUCAUACACAAGAUGUUGAACCUCUUGUGCGUCCCGAUGUUUNGCAAUGUGGAGCUCCGCCAGAGACCAACCGAGAA [AMX86-F7]
[4]; 2'-F all C and U (rRfY), 1X SHMCK, 0.1 mg/mL tRNA, RT
  Kd: 106 nM
[1]; 2'-F all C and U (rRfY), 1X SHMCK, 1 mM Mg, 1 mM Ca, 0.1 mg/mL tRNA, RT
  Kd: 147 nM

## ACAGGCAAGUAAUUGGGGAGUGCGGGCGGGGUGU [ARC1611]
[1]; deoxy A,G, 2'-OMe C,U, dI at G28, 3'-idT [dI at 28 (G parent), 2'-OMe C/U at 2,6,10,13,14,21,23,27,32,34, other A,G deoxy, 3'-inverted dT at 35], DPBS Ca Mg
  Kd: 1.7 nM

## ACAGGCAAGUAAUUGGGGAGUGCGGGCGGGGUGU [ARC1598]
[1]; deoxy A,G, 2'-OMe C,U, dI at G18, 3'-idT [18], DPBS Ca Mg
  Kd: 4.7 nM

## ACAGGCAAGUAAUUGGGGAGUGCGGGCGGGGUGU [ARC1608]
[1]; deoxy A,G, 2'-OMe C,U, dI at G24,G25, 3'-idT [24,25], DPBS Ca Mg
  Kd: 9.7 nM

## ACAGGCAAGUAAUUGGGGAGUGCGGGCGGGGUGU [ARC1601]
[1]; deoxy A,G, 2'-OMe C,U, dI at G17,G18, 3'-idT [17,18], DPBS Ca Mg
  Kd: 4.4 nM

## ACAGGCAAGUAAUUGGGGAGUGCGGGCGGGGUGU [ARC1593]
[1]; deoxy A,G, 2'-OMe C,U, dI at G4,G5, 3'-idT [dI at 4,5 (parent G), 2'-OMe C,U at 2,6,10,13,14,21,23,27,32,34, deoxy A,G elsewhere, 3'-inverted dT at 35], DPBS Ca Mg
  Kd: 13.8 nM

## ACAGGCAAGUAAUUGGGGAGUGCGGGCGGGGUGU [ARC1599]
[1]; deoxy A,G, 2'-OMe C,U, dI at G15,G16, 3'-idT [15,16], DPBS Ca Mg
  Kd: 7.2 nM

## ACAGGCAAGUAAUUGGGGAGUGCGGGCGGGGUGU [ARC1602]
[1]; dRmY, deoxyinosine at G15-G18, 3'-idT [deoxyinosine at 15-18 (parent base G written), 2'-deoxy purines, 2'-OMe C/U (2,6,10,13,14,21,23,27,32,34), 3'-inverted dT at 35], dot blot, DPBS with Ca and Mg, 0.1 mg/mL BSA, 30 min RT
  Kd: 40.8 nM

## ACAGGCAAGUAAUUGGGGAGUGCGGGCGGGGUGU [ARC1612]
[1]; deoxy A,G, 2'-OMe C,U, dI at G29, 3'-idT [dI at 29 (G parent), 2'-OMe C/U at 2,6,10,13,14,21,23,27,32,34, other A,G deoxy, 3'-inverted dT at 35], DPBS Ca Mg
  Kd: 1.9 nM

## GGGAAAAGCGAAUCAUACACAAGAGGUUGAGUACGACGGAGUCNUGGCUAACACGGAAACUAGAGCUCCGCCAGAGACCAACCGAGAA [AMX86-B9]
[4]; 2'-F C,U, tRNA
  Kd: 848 nM
[1]; 2'-F C,U, SHMCK, tRNA
  Kd: 23.7 nM

## ACAGGCAAGUAAUUGGGGAGUGCGGGCGGGGUGU [ARC1607]
[1]; deoxy A,G, 2'-OMe C,U, dI at G26, 3'-idT [26], DPBS Ca Mg
  Kd: 3.3 nM

## ACAGGCAAGUAAUUGGGGAGUGCGGGCGGGGUGU [ARC1595]
[1]; deoxy A,G, 2'-OMe C,U, dI at G15, 3'-idT [dI at 15 (parent G), 2'-OMe C,U at 2,6,10,13,14,21,23,27,32,34, deoxy A,G elsewhere, 3'-inverted dT at 35], DPBS Ca …
  Kd: 5.4 nM

## ACAGGCAAGUAAUUGGGGAGUGCGGGCGGGGUGU [ARC1617]
[1]; deoxy A,G, 2'-OMe C,U, dI at G30,G31, 3'-idT [dI at 30,31 (G parent), 2'-OMe C/U at 2,6,10,13,14,21,23,27,32,34, other A,G deoxy, 3'-inverted dT at 35], DPBS Ca Mg
  Kd: 4.1 nM

## GGAGCGCACUCNGCCACUUCGGAAUAUCGUUGUCUUCUGGGUGAGCAUGCGUUGAGGUUUCNACCUCUCUGCUAGC [AMX369.B2]
[2]
  Kd: 252 nM
[3]
  Kd: 49 nM

## ACAGGCAAGUAAUUGGGGAGUGCGGGCGGGGUGU [ARC1600]
[1]; deoxy A,G, 2'-OMe C,U, dI at G16,G17, 3'-idT [16,17], DPBS Ca Mg
  Kd: 15.6 nM

## ACAGGCAAGUAAUUGGGGAGUGCGGGCGGGGUGU [ARC1596]
[1]; deoxy A,G, 2'-OMe C,U, dI at G16, 3'-idT [dI at 16 (parent G), 2'-OMe C,U at 2,6,10,13,14,21,23,27,32,34, deoxy A,G elsewhere, 3'-inverted dT at 35], DPBS Ca …
  Kd: 11.1 nM

## ACAGGCAAGUAAUUGGGGAGUGCGGGCGGGGUGU [ARC1609]
[1]; deoxy A,G, 2'-OMe C,U, dI at G25,G26, 3'-idT [25,26], DPBS Ca Mg
  Kd: 4.7 nM

## ACAGGCAAGUAAUUGGGGAGUGCGGGCGGGGUGU [ARC1605]
[1]; deoxy A,G, 2'-OMe C,U, dI at G24, 3'-idT [24], DPBS Ca Mg
  Kd: 7.5 nM

## ACAGGCAAGUAAUUGGGGAGUGCGGGCGGGGUGU [ARC1614]
[1]; deoxy A,G, 2'-OMe C,U, dI at G31, 3'-idT [dI at 31 (G parent), 2'-OMe C/U at 2,6,10,13,14,21,23,27,32,34, other A,G deoxy, 3'-inverted dT at 35], DPBS Ca Mg
  Kd: 1.7 nM

## ACAGGCAAGUAAUUGGGGAGUGCGGGCGGGGUGU [ARC1618]
[1]; dRmY, deoxyinosine at G28-G31, 3'-idT [deoxyinosine at 28-31 (parent base G written), 2'-deoxy purines, 2'-OMe C/U (2,6,10,13,14,21,23,27,32,34), 3'-inverted dT at 35], dot blot, DPBS with Ca and Mg, 0.1 mg/mL BSA, 30 min RT
  Kd: 34 nM

## ACAGGCAAGUAAUUGGGGAGUGCGGGCGGGGUGU [ARC1616]
[1]; deoxy A,G, 2'-OMe C,U, dI at G29,G30, 3'-idT [dI at 29,30 (G parent), 2'-OMe C/U at 2,6,10,13,14,21,23,27,32,34, other A,G deoxy, 3'-inverted dT at 35], DPBS Ca Mg
  Kd: 6.1 nM

## ACAGGCAAGUAAUUGGGGAGUGCGGGCGGGGUGU [ARC1592]
[1]; deoxy A,G, 2'-OMe C,U, dI at G5, 3'-idT [dI at 5 (parent G), 2'-OMe C,U at 2,6,10,13,14,21,23,27,32,34, deoxy A,G elsewhere, 3'-inverted dT at 35], DPBS Ca Mg
  Kd: 8.1 nM

## ACAGGCAAGUAAUUGGGGAGUGCGGGCGGGGUGU [ARC1610]
[1]; deoxy A,G, 2'-OMe C,U, dI at G24-G26, 3'-idT [dI at 24,25,26 (G parent), 2'-OMe C/U at 2,6,10,13,14,21,23,27,32,34, other A,G deoxy, 3'-inverted dT at 35], DPBS Ca Mg
  Kd: 5.2 nM

## GGGAAAAGCGAAUCCUACCCAAGAUGUUGUUGGCGUUGAUCGUAUGAUUNAUGGAGNGUGUCNGUGCUCCGCCAGAGACCAACCGAGAA [AMX86-E7]
[4]; 2'-F C,U, tRNA
  Kd: 268 nM
[1]; 2'-F C,U, SHMCK, tRNA
  Kd: 210 nM

## ACAGGCAAGUAAUUGGGGAGUGCGGGCGGGGUGU [ARC1604]
[1]; deoxy A,G, 2'-OMe C,U, dI at G22, 3'-idT [22], DPBS Ca Mg
  Kd: 2.1 nM

## ACAGGCAAGUAAUUGGGGAGUGCGGGCGGGGUGU [ARC1619]
[1]; deoxy A,G, 2'-OMe C,U, dI at G33, 3'-idT [dI at 33 (G parent), 2'-OMe C/U at 2,6,10,13,14,21,23,27,32,34, other A,G deoxy, 3'-inverted dT at 35], DPBS Ca Mg
  Kd: 2.8 nM

## GGGAGAGGAGAGAACGUUCUACGGAAGGNAACAANAGCACUGUUUGUGCAGGCGCUGUCGAUCNAUCNAUCNAUG [rRmY clone SEQ 85]
[1]; 2'-OMe C,U, DPBS Ca Mg
  Kd: 240 nM

## ACAGGCAAGUAAUUGGGGAGUGCGGGCGGGGUGU [ARC1613]
[1]; deoxy A,G, 2'-OMe C,U, dI at G30, 3'-idT [dI at 30 (G parent), 2'-OMe C/U at 2,6,10,13,14,21,23,27,32,34, other A,G deoxy, 3'-inverted dT at 35], DPBS Ca Mg
  Kd: 2.3 nM

## GGGAAAAGCGAAUCAUACACAAGAGCGCUUUAGCGGGUAUAGCACUUUUCAUCUAAUGAANCCGUAGCUCCGCCAGAGACCAACCGAGAA [AMX86-H11]
[4]; 2'-F C,U, tRNA
  Kd: 215 nM
[1]; 2'-F C,U, SHMCK, tRNA
  Kd: 367 nM

## GGAGCGCACUCAGCCACGGUUUACUUCCGUGGCAAUAUUGACCUCNCUCUAGACAGGUUUCGACCUCUCUGCUAGC [AMX369.F1]
[2]
  Kd: 165 nM
[3]
  Kd: 63 nM

## ACAGGCAAGUAAUUGGGGAGUGCGGGCGGGGUGU [ARC1603]
[1]; deoxy A,G, 2'-OMe C,U, dI at G20, 3'-idT [20], DPBS Ca Mg
  Kd: 1.6 nM

## ACAGGCAAGUAAUUGGGGAGUGCGGGCGGGGUGU [ARC1606]
[1]; deoxy A,G, 2'-OMe C,U, dI at G25, 3'-idT [25], DPBS Ca Mg
  Kd: 5 nM
